This is an account of results in the supplement of paper PMC12764529.

A short description of data set [1]: folding stability dG unfold from trypsin proteolysis; higher = more stable. The essentials: (§1)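 Mini-proteins designed to be under 80 residues and free of cysteine were carried in a PA-tagged cDNA display construct and digested with trypsin and with chymotrypsin. Each protease was applied at 11 threefold-diluted concentrations, alongside a no-protease condition, before sequencing. K50 came from Bayesian fitting of the sequencing counts, and unfolding free energy was obtained by comparing it with a sequence-predicted unfolded-state K50 and a shared folded-state K50, for each protease separately or for both together. Designs were retained only if their AlphaFold2 dimer inter-PAE exceeded 15.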

A short description of data set [2]: folding stability dG unfold from chymotrypsin proteolysis; higher = more stable. The essentials:
as §1

Data set [3] is described as follows: folding stability dG unfold (combined trypsin and chymotrypsin); higher = more stable. The essentials: as §1

± gives the half width of the 95% confidence interval.

As to “SAPMKIVKKTDNTLYIYDKKTKKIVKITINDGTITVEEITYDKKTKEKKVETKTIKLSEEQLKKLKKLLSAG [r14_245_TrROS_Hall]”, the results for the “folding stability dG unfold” value in data set [1], in data set [2] and in data set [3] were 1.54 ± 0.079 kcal/mol, 0.7 ± 0.24 kcal/mol and 1.23 ± 0.14 kcal/mol, respectively.
For “SAPNIEIDYNKDNGMITIRLPGTGVEYMIPMPDGQLMAIDIEVKPDPDGKRKISIEIYFPDGKEHEFEISAG [r14_675_TrROS]”, in that order: 2.19 ± 0.29 kcal/mol, 2.45 ± 0.17 kcal/mol and 2.3 ± 0.39 kcal/mol.
Taken in the same sequence, the figures for “SAPNYVLVIKIKSTNTPYYIPVPEDVEIVVKKNKNGEITAVVKVKDPETGEYFVITFSGDAKIDKIEPVPSA [r9_467_TrMRF]” were 2.21 ± 0.1 kcal/mol, 2.93 ± 0.082 kcal/mol and 2.63 ± 0.19 kcal/mol.
For “SAPPETVEVEEVAEFELADGSKVTVAKVKLPNGETLVVVTVYNKDGEPVATFVVREGDPDALAEALKALSSA [r9_1069_TrROS_Hall]”, the figures for the “folding stability dG unfold” value in data set [1], in data set [2] and in data set [3] were 3.9 ± 0.3 kcal/mol, 4.56 ± 0.095 kcal/mol and 4.51 ± 0.13 kcal/mol, respectively.
Turning to “SAPPNHRMVMYEIPIPPGMEIGDEIKLKIKVPGKEYPIKIDRIPNLPPGMRVRIMFNLDNGQFMIQILPSAG [r14_554_TrROS]”, the “folding stability dG unfold” value in data set [1] stood at 2.52 ± 0.1 kcal/mol; in data set [2], 2.69 ± 0.062 kcal/mol; in data set [3], 2.77 ± 0.26 kcal/mol.
Taken in the same sequence, the figures for “SAPPTVKINWERVRRNGKRYYMIRVEITHPNNGKEREHTFMYDDPEDFLDNLLKLPNIDRVEIEDIYPMSAG [r14_464_TrROS]” were 1.64 ± 0.27 kcal/mol, 1.8 ± 0.2 kcal/mol and 2.12 ± 0.51 kcal/mol.
As for “SAPWVYHVRIEYKGPDGEPVAEHTIMVKTPEALKEQIRKHFGLSPAQIKNIEVEPVIPAEEMNEMQEKGSAG [r14_852_TrROS]”, the “folding stability dG unfold” value in data set [1] stood at 0.204 ± 0.13 kcal/mol; in data set [2] it was 1.27 ± 0.12 kcal/mol; in data set [3], 0.882 ± 0.094 kcal/mol.
Taken in the same sequence, the figures for “SARILRVEFEPFPLTERARLRLEVEDEDNDFPYEVDIELEVLPDPSEVRLRLVVRRPDGSRRELELRLFSAG [r14_10_TrMRF]” were 3.56 ± 0.086 kcal/mol, 4.97 ± 0.091 kcal/mol and 4.23 ± 0.091 kcal/mol.
With “SARVYRLPDGRLVRFEPVPPRPPVIVIPVDFRISPDDPETRRRLAEEIRRRLLEELGLPEDTPIFVDPSSAG [r14_453_TrMRF]”, the “folding stability dG unfold” value in data set [1] came to 4.11 ± 0.18 kcal/mol; in data set [2], 4.45 ± 0.14 kcal/mol; in data set [3] it was 4.16 ± 0.22 kcal/mol.
Take “SASAAEEIERALLPLPNIPTAPLATFTLPDAPVEVVSYDPVTGRVLVRLTGTGALFVFDPETGEAELLPSAG [r14_359_TrMRF]”: the “folding stability dG unfold” value in data set [1] turned out to be 2.56 ± 0.16 kcal/mol; in data set [2] it was 2.62 ± 0.054 kcal/mol; in data set [3], 2.7 ± 0.34 kcal/mol.
On to “SASISVASPEEAEKIAKELKEKYGAKSVKIEPLPEPLVKVTIEFEVPLENGKTATRKIVLLFSSDGKEESAG [r14_420_TrMRF]”, for which the “folding stability dG unfold” value in data set [1] amounted to 1.87 ± 0.044 kcal/mol; in data set [2], 2.715 ± 0.016 kcal/mol; in data set [3], 2.44 ± 0.074 kcal/mol.
For “SASITIPVDELKDFAEHFPGFNVGVNPETGMFQIFFPENGWMINIDIEVDPDDPDTIEIDIEIYPMPPNSAG [r14_604_TrROS]”, in that order: 1.78 ± 0.13 kcal/mol, 2.96 ± 0.15 kcal/mol and 2.57 ± 0.37 kcal/mol.
With “SASKGSSMITVELTVTVPPSVSIEEVKKQFEEEFPKDAEIKVEATPVTVPANGTPVTTIKVTVTITKKESAG [r14_633_JUSTAS]”, the figures for the “folding stability dG unfold” value in data set [1], in data set [2] and in data set [3] were 1.27 ± 0.1 kcal/mol, 1.71 ± 0.11 kcal/mol and 1.56 ± 0.13 kcal/mol, respectively.
Consider “SASKRFVFPVLGDEQTITVDVPEDYYVRITVFFPDGSEPILIPPNEKVTITVPRKDAFVVIEVFPKNEESAG [r14_882_TrMRF]”, for which the “folding stability dG unfold” value in data set [1] was determined as 2.59 ± 0.077 kcal/mol; in data set [2] it was 2.35 ± 0.025 kcal/mol; in data set [3], 2.48 ± 0.067 kcal/mol.
Taken in the same sequence, the figures for “SASLEPVATTAVPLPDGTTATLTLYRDPATGRYTVRVTVTHPDGAAETRVLEVDSEEEALSRVVLSPGASAG [r14_749_JUSTAS]” were 2.38 ± 0.049 kcal/mol, 3.421 ± 0.018 kcal/mol and 3.12 ± 0.075 kcal/mol.
For “SASLPPGQVRSLPVDVTIETPEGQPRFTEPATLEPPPRLVVDVALPLPPGEVTITIRLPGPGVTLTIERSAG [r14_280_JUSTAS]”, in that order: 0.562 ± 0.089 kcal/mol, 1.53 ± 0.16 kcal/mol and 1.42 ± 0.37 kcal/mol.
Turning to “SASLTLTITLPDGAKITSITVEEVDGELVLTEITVETTNENGEKTTVTRTIVLKLPPAPPAHPDDPALKSAG [r14_95_TrROS_Hall]”, the “folding stability dG unfold” value was 2.13 ± 0.13 kcal/mol in data set [1], 2.63 ± 0.12 kcal/mol in data set [2] and 2.45 ± 0.15 kcal/mol in data set [3].
“SASMTLTIPLPLKPGDRVVVEATHPLGYGFETEELPDGSVRLTLTVPTPDAPPATLHIRVYEPNTGKLASAG [r14_39_TrMRF]”: the “folding stability dG unfold” value in data set [1] was 2.28 ± 0.051 kcal/mol; in data set [2] it was 3.24 ± 0.056 kcal/mol; in data set [3], 2.85 ± 0.1 kcal/mol.
